Experimental findings from US20120316071A1 (published 2012) are described below.

Assay [1] has as its target T1, rHuman EGF R/Fc Chimera, CF (R&D Systems Cat#344-ER) (human, UniProt P00533 25-645).
T1 construct: Bought from R&D Systems; also called epidermal growth factor receptor (EGF R); not shown: Fc of the bought chimera
Put plainly: MSD multispot ECL, antigen spotted on plate, Fab 352.5 nM; blank spot 494.

For assay [2], the target named is T2, rHuman IGF-1 sR, (IGF-1 sR), CF (R&D Systems Cat#391-GR) (human, UniProt P08069 31-932).
T2 construct: Bought from R&D Systems and called a soluble receptor; also called insulin-like growth factor-1 soluble receptor
Described as above.

For assay [3], the target named is T3, rHuman ErbB2/Fc Chimera, CF (R&D Systems Cat#1129-ER) (human, UniProt P04626 23-652).
T3 construct: Bought from R&D Systems; also called human epidermal growth factor 2 receptor (ErbB2); not shown: Fc of the bought chimera
The description is as above.

In assay [4] the target is T4, rHuman CD44/Fc Chimera, CF (R&D Systems Cat#3660-CD) (human, UniProt P16070 21-220).
T4 construct: Bought from R&D Systems; not shown: Fc of the bought chimera
The description is as above.

In assay [5] the target is T5, Recombinant Human DLL4 (R&D Systems Cat#1506-D4/CF) (human, UniProt Q9NR61 27-524).
T5 construct: Bought recombinant protein; also called delta-like protein 4; rHuman DLL4
Put plainly: Multispot ECL (MSD) titration; antigen spotted on plate; Fab 392.5 nM; blank spot 338.

Assay [6] deals with T6, rHuman Notch-1/Fc Chimera, CF (R&D Systems Cat#3647-TK) (human, UniProt P46531 19-526).
T6 construct: Bought Fc chimera; Fc part of the bought chimera not given
The assay is described as above.

Assay [7] concerns the target T7, rHuman IGF-1 sR (IGF-1 sR), CF (R&D Systems Cat#391-GR) (human, UniProt P08069 31-932).
T7 construct: Bought soluble receptor; also called insulin-like growth factor-1 soluble receptor
The assay is described as above.

Assay [8] deals with T8, rHuman Erythropoietin R/Fc Chimera, CF (R&D Systems Cat#963-ER) (human, UniProt P19235 25-250).
T8 construct: Bought Fc chimera; also called EPO R/Fc; EPO R; Fc part of the bought chimera not given
T8 sequence (looked up): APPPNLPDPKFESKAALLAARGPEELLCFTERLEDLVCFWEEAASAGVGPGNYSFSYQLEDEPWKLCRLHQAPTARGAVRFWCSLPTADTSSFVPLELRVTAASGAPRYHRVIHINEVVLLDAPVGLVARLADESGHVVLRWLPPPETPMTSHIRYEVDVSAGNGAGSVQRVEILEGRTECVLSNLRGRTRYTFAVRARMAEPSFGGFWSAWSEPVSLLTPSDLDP
The assay is described as above.

The target of assay [9] is T9, rHuman HGF R/c-MET/Fc Chimera, CF (R&D Systems Cat#358-MT/CF) (human, UniProt P08581 25-932).
T9 construct: Bought Fc chimera; also called HGF R/Fc; hepatocyte growth factor receptor; Fc part of the bought chimera not given
The assay is described as above.

The target of assay [10] is T10, rHuman ErbB2/Fc Chimera, CF (R&D Systems Cat#1129-ER) (human, UniProt P04626 23-652).
T10 construct: Bought Fc chimera; also called human epidermal growth factor 2 receptor; Fc part of the bought chimera not given
The assay is described as above.

Assay [11] has as its target T11, rHuman P-Cadherin/Fc Chimera, CF (R&D Systems Cat#861-PC) (human, UniProt P22223 108-654).
T11 construct: Bought Fc chimera; Fc part of the bought chimera not given
The description is as above.

Assay [12] has as its target T12, rHuman CD44/Fc Chimera, CF (R&D Systems Cat#3660-CD) (human, UniProt P16070 21-220).
T12 construct: Bought Fc chimera; Fc part of the bought chimera not given
The description is as above.

Assay [13] has as its target T13, rHuman HGF R/c-MET/Fc Chimera, CF (R&D Systems Cat#358-MT/CF) (human, UniProt P08581 25-932).
T13 construct: Bought reagent; also called HGF R/Fc; hepatocyte growth factor receptor; Fc part of the bought chimera not given
Put plainly: ECL Multispot (MSD) assay, antigen spotted on plate, 10 nM Fab; blank spot of this row 344.

In assay [14] the target is T14, rHuman Erythropoietin R/Fc Chimera, CF (R&D Systems Cat#963-ER) (human, UniProt P19235 25-250).
T14 construct: Bought Fc chimera; also called EPO R/Fc; Epo R; Fc part of the bought chimera not given
T14 sequence (looked up): T8 sequence (looked up)
Put plainly: MSD Multispot ECL, antigen spotted on plate, Fab at 60 nM; blank spot 237.

For assay [15], the target named is T15, rHuman Notch-1/Fc Chimera, CF (R&D Systems Cat#3647-TK) (human, UniProt P46531 19-526).
T15 construct: Bought Fc chimera; Fc part of the bought chimera not given
The description is as above.

For assay [16], the target named is T16, rHuman P-Cadherin/Fc Chimera, CF (R&D Systems Cat#861-PC) (human, UniProt P22223 108-654).
T16 construct: Bought Fc chimera; Fc part of the bought chimera not given
The description is as above.

Assay [17] concerns the target T17, Recombinant Human DLL4 (R&D Systems Cat#1506-D4/CF) (human, UniProt Q9NR61 27-524).
T17 construct: Bought recombinant protein; also called rHuman DLL4; delta-like protein 4
The assay is described as above.

For assay [18], the target named is T18, rHuman CD44/Fc Chimera, CF (R&D Systems Cat#3660-CD) (human, UniProt P16070 21-220).
T18 construct: Bought Fc chimera; Fc part of the bought chimera not given
The assay is described as above.

B1: Fab VH1-46_IGHD3-10*01_IGHJ4*01 & B3_IGKJ1*01 (Fab, V domains shown)
VH: QVQLVQSGAEVKKPGASVKVSCKASGYTFTSYYMHWVRQAPGQGLEWMGIINPSGGSTSYAQKFQGRVTMTRDTSTSTVYMELSSLRSEDTAVYYCAREYYYGSGSYYNDYFDYWGQGTLVTVSS
VL: not shown
notes: Tested as a Fab made in E. coli; VH was cloned into Plasmid A (CH1 constant region, His6 and Flag tags); The kappa VL was cloned into Plasmid C (kappa CL)
With B1, the ECL signal in assay [1] came to 769; in assay [2], 528; in [3], 514; in assay [4], 556.

B2: Fab VH1-46_IGHD3-10*01_IGHJ4*01 & O1_IGKJ1*01 (Fab, V domains shown)
VH: B1 VH
VL: DIVMTQTPLSLPVTPGEPASISCRSSQSLLDSDDGNTYLDWYLQKPGQSPQLLIYTLSYRASGVPDRFSGSGSGTDFTLKISRVEAEDVGVYYCMQRIEFPSWTFGQGTKVEIKR
notes: Germline library Fab expressed in E. coli; VH was cloned into Plasmid A (CH1 constant region, His6 and Flag tags); The kappa VL was cloned into Plasmid C (kappa CL)
Take B2: the ECL signal in assay [5] came out at 735; in [6], 749; in assay [7], 466; in assay [8], 5860; in assay [9], 581; in assay [10], 539. In addition, the ECL signal in [11] was found to be 459; in assay [12] it was 498.

B3: Fab VH1-46_IGHD6-6*01_IGHJ1*01 S102A/S103P/S104F (APF) & L6_IGKJ1*01 (Fab, V domains shown)
VH: QVQLVQSGAEVKKPGASVKVSCKASGYTFTSYYMHWVRQAPGQGLEWMGIINPSGGSTSYAQKFQGRVTMTRDTSTSTVYMELSSLRSEDTAVYYCAREEYAPFSAEYFQHWGQGTLVTVSS
VL: not shown
notes: Tested as a Fab made in E. coli; also called H:APF & L:wt; APF triple mutant
B3 displayed an ECL signal in [13] of 434.

B4: Fab VH6-1_IGHD3-3*01_IGHJ4*01 & V4-3_IGLJ4*01 (Fab, V domains shown)
VH: QVQLQQSGPGLVKPSQTLSLTCAISGDSVSSNSAAWNWIRQSPSRGLEWLGRTYYRSKWYNDYAVSVKSRITINPDTSKNQFSLQLNSVTPEDTAVYYCAREYYDFWSGYYTDYFDYWGQGTLVTVSS
VL: QPVLTQPTSLSASPGASARLTCTLRSGINLGSYRIFWYQQKPESPPRYLLSYYSDSSKHQGSGVPSRFSGSKDASSNAGILVISGLQSEDEADYYCMIWHSSASFVFGGGTQLIIL
notes: Tested as a purified germline Fab made in E. coli; The VH was cloned into plasmid A (CH1 constant region, His6 and Flag tags) and the lambda VL into plasmid E (lambda CL)
For B4, the ECL signal came to 423 in [14]; 415 in assay [15]; 372 in [16]; 875 in assay [17]; 434 in assay [18].
